In ChEMBL document CHEMBL2074313, “Polyspecific substrate uptake by the hepatic organic anion transporter Oatp1 in stably transfected CHO cells” (Am J Physiol, 1999):

T1: Oatp1 (Solute carrier organic anion transporter family member 1A1) (Rattus norvegicus, UniProt P46720)
T1 sequence (P46720 whole entry): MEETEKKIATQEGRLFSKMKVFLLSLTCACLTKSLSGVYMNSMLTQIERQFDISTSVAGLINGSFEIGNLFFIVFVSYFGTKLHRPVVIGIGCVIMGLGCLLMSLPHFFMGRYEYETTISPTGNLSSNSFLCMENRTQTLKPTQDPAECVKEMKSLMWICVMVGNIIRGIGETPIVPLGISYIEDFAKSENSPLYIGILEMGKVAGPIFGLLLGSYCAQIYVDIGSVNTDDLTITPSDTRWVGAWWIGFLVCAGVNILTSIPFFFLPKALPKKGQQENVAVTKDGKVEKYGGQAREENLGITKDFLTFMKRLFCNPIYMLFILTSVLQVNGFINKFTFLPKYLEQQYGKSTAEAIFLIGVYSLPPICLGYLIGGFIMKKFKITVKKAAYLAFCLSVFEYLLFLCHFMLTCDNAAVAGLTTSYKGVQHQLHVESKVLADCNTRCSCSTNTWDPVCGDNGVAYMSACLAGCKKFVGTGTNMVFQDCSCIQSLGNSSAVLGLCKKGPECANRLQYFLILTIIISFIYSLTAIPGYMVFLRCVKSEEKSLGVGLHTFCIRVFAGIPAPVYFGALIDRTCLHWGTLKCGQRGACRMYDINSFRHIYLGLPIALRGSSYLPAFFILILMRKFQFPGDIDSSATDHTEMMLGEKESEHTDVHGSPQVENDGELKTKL

B1: Solute carrier organic anion transporter family member 1A1 (Rattus norvegicus) (protein)
chain: MEETEKKIATQEGRLFSKMKVFLLSLTCACLTKSLSGVYMNSMLTQIERQFDISTSVAGLINGSFEIGNLFFIVFVSYFGTKLHRPVVIGIGCVIMGLGCLLMSLPHFFMGRYEYETTISPTGNLSSNSFLCMENRTQTLKPTQDPAECVKEMKSLMWICVMVGNIIRGIGETPIVPLGISYIEDFAKSENSPLYIGILEMGKVAGPIFGLLLGSYCAQIYVDIGSVNTDDLTITPSDTRWVGAWWIGFLVCAGVNILTSIPFFFLPKALPKKGQQENVAVTKDGKVEKYGGQAREENLGITKDFLTFMKRLFCNPIYMLFILTSVLQVNGFINKFTFLPKYLEQQYGKSTAEAIFLIGVYSLPPICLGYLIGGFIMKKFKITVKKAAYLAFCLSVFEYLLFLCHFMLTCDNAAVAGLTTSYKGVQHQLHVESKVLADCNTRCSCSTNTWDPVCGDNGVAYMSACLAGCKKFVGTGTNMVFQDCSCIQSLGNSSAVLGLCKKGPECANRLQYFLILTIIISFIYSLTAIPGYMVFLRCVKSEEKSLGVGLHTFCIRVFAGIPAPVYFGALIDRTCLHWGTLKCGQRGACRMYDINSFRHIYLGLPIALRGSSYLPAFFILILMRKFQFPGDIDSSATDHTEMMLGEKESEHTDVHGSPQVENDGELKTKL

Legend:
Format in all cases: functional, cell-based
[1] = target: T1, Oatp1 (Solute carrier organic anion transporter family member 1A1); test: (§1) TP_TRANSPORTER: uptake in Oatp1-expressing CHO-03 cell; conditions: hamster, CHO-03 cells expressing Oatp1
[2] = substrate: COc1cc(C)c(S(=O)(=O)N[C@@H](CC(=O)O)C(=O)N[C@H](Cc2ccc(C(=N)N)cc2)C(=O)N2CCCCC2)c(C)c1C; test: as §1
[3] = substrate: C[C@H](CCC(=O)NCCS(=O)(=O)O)[C@H]1CC[C@H]2[C@@H]3[C@@H](O)C[C@@H]4C[C@H](O)CC[C@]4(C)[C@H]3CC[C@]12C; test: as §1
[4] = substrate: C[C@H](CCC(=O)NCCS(=O)(=O)O)[C@H]1CC[C@H]2[C@@H]3[C@H](O)C[C@@H]4C[C@H](O)CC[C@]4(C)[C@H]3CC[C@]12C; test: as §1
[5] = substrate: C[C@]12CC[C@@H]3c4ccc(O)cc4CC[C@H]3[C@@H]1CC[C@@H]2O[C@@H]1O[C@H](C(=O)O)[C@@H](O)[C@H](O)[C@H]1O; test: as §1
[6] = substrate: C[C@]12CC[C@@H]3c4ccc(OS(=O)(=O)O)cc4CC[C@H]3[C@@H]1CCC2=O; test: as §1
[7] = substrate: O=C1OC(c2ccc(O)c(S(=O)(=O)O)c2)(c2ccc(O)c(S(=O)(=O)O)c2)c2c(Br)c(Br)c(Br)c(Br)c21; test: as §1
[8] = substrate: [H][C@@]12CC=C3C[C@@H](OS(=O)(=O)O)CC[C@]3(C)[C@@]1([H])CC[C@]1(C)C(=O)CC[C@@]21[H]; test: as §1

Molecule	Km [1] [µM]	Km [2] [µM]	Km [3] [µM]	Km [4] [µM]	Km [5] [µM]	Km [6] [µM]	Km [7] [µM]	Km [8] [µM]
C[C@@H]1O[C@@H](O[C@H]2C[C@@H](O)[C@]3(CO)[C@H]4[C@H](O)C[C@]5(C)[C@@H](C6=CC(=O)OC6)CC[C@]5(O)[C@@H]4CC[C@]3(O)C2)[C@H](O)[C@H](O)[C@H]1O [OUABAIN]	3000							
C[C@@H]1Cc2c(Cl)cc(C(=O)N[C@@H](Cc3ccccc3)C(=O)O)c(O)c2C(=O)O1 [3R14S-OCHRATOXIN A]	29							
B1		57	13	7	4	11	3	5
